These are literature values, as cited in PMC6679882.

A word on the Kd: it is the free concentration of one partner at which half of the binding sites on the other are occupied at equilibrium, for simple one-to-one binding.

For this data set, the target named is IL-18BP (Homo sapiens) (UniProt O95998).
Chain of IL-18BP (Homo sapiens) (O95998 31-194): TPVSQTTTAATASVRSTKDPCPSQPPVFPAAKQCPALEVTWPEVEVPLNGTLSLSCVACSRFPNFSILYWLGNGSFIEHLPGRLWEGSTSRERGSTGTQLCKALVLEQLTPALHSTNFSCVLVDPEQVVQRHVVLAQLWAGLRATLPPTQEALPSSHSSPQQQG

Chain of IL-18 (Q14116 37-193): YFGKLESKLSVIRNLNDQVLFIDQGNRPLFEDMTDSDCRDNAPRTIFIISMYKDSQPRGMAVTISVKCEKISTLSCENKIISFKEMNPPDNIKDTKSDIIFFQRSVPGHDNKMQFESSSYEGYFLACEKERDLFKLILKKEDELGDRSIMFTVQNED

Take IL-18 (from UniProt Q14116): the Kd was 400 pM.
